This note sets out measurements from article PMC4119840 (Biochimie, 2014).

Several values for one entry are separate records, joined by “and”; a condition that tells them apart may be missing. Identical values can stand only once.

The data set concerns the molecule itself. The data set is described as follows: SEC.

B1: mouse Serum amyloid A 1.1 (SAA1.1), lipid-free (natural protein)
chain: GFFSFIGEAFQGAGDMWRAYTDMKEAGWKDGDKYFHARGNYDAAQRGPGGVWAAEKISDARESFQEFFGRGHEDTMADQEANRHGRSGKDPNYYRPPGLPAKY
Regarding B1, the stoichiometry N (as a rule, the number of molecules, sites or subunits per partner or assembly) was 12 and 4.
